Measurements reported in patent publication US20020165186, “Compounds that affect CD83 expression, pharmaceutical compositions comprising said compounds and methods for identifying said compounds” (published 2002).

How the values were obtained:
HuR (ELAV, ELAVL1) [1] = target: T1, HuR (ELAV, ELAVL1) (Homo sapiens, UniProt Q15717 SEQ:1-326); assay: EMSA; conditions: tags: N-terminal GST (pGEX-5X-1), E. coli BL21, label: 32P-UTP
HuR (ELAV, ELAVL1) [2] = target: T1, HuR (ELAV, ELAVL1); assay: SPR; GST-HuR captured on CM5 chip; HBS-EP buffer; conditions: tags: N-terminal GST (pGEX-5X-1), E. coli BL21; 3-pronged stem-loop (predicted)
From the text: Specific protein-RNA interactions were detected by Surface Plasmon Resonance using the BIACore X optical biosensor (Pharmacia Biosensor AB, Upsala, Sweden).
The GST-fusion proteins of interest (GST alone or GST-ELAV (HuR)) were immobilized onto the surface of a CM5 Chip (Pharmacia Biosensor AB, Upsala, Sweden) by using the BIACore GST Capture Kit (Pharmacia Biosensor AB, Upsala, Sweden), according to the manufacturers instructions, until a change of at least 1,000 resonance units (RU) was detectable.
1 μg of in vitro transcribed RNA (using the T7/SP6 Riboprobe Kit, Promega, Mannheim, Germany) was diluted in a total volume of 80 μl HBS-EP buffer (10 mM HEPES, 150 mM NaCl, 3 mM EDTA, 0.005% (v/v) polysorbate 20) and was allowed to flow over the chip at a flow rate of 50μl/minute. The standard running buffer was HBS-EP buffer. The sensor surface was regenerated between assays by injecting 30 μl of 0.5 M NaCl to remove bound analyte.

T1 sequence (Q15717 whole entry T180A): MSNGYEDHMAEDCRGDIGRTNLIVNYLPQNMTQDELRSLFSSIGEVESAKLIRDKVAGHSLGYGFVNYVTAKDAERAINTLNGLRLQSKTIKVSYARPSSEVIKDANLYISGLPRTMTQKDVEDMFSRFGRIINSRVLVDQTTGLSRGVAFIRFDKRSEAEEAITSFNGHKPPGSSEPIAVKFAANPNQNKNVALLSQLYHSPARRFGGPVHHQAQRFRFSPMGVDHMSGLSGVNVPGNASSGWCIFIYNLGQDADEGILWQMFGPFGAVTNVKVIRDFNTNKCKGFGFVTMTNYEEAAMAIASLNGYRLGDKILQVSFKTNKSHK

B1: CD83 RNA nt466-618 (stem-loop-2) (ssRNA)
RNA: UUAACACUCAUCAUUUUCACUUGUAAGUUUGCACGGCUACAGAGUAUCUUCCCAGAUUUUUCUAAAGCUGGCAUGGAACGAGCUUUUCUCCCAGUUACCUCCCCAAAUAAGCAUUUAGGGCUAGUGACUCCUCACAAGACAGAACUGGUAUGA
B1: binds (HuR (ELAV, ELAVL1) [1]; 3-pronged stem-loop (predicted)).

B2: CD83 RNA nt466-615 (stem-loop-2) (ssRNA)
RNA: UUAACACUCAUCAUUUUCACUUGUAAGUUUGCACGGCUACAGAGUAUCUUCCCAGAUUUUUCUAAAGCUGGCAUGGAACGAGCUUUUCUCCCAGUUACCUCCCCAAAUAAGCAUUUAGGGCUAGUGACUCCUCACAAGACAGAACUGGUA
B2: binds (HuR (ELAV, ELAVL1) [2]).

B3: CD83 RNA nt295-465 (stem-loop-1) (ssRNA)
RNA: AGCUGCAACUCGGGGACAUACAGGUGCACUCUGCAGGACCCGGAUGGGCAGAGAAACCUAAGUGGCAAGGUGAUCUUGAGAGUGACAGGAUGCCCUGCACAGCGUAAAGAAGAGACUUUUAAGAAAUACAGAGCGGAGAUUGUCCUGCUGCUGGCUCUGGUUAUUUUCUAC
B3: binds (HuR (ELAV, ELAVL1) [1]; single stem-loop (nt412-465, predicted)).
